Values after ≈ are worked out from the molar mass of the structure shown.
Columns and labels:
[1] = system: SK-BR-3 human breast carcinoma cells; assay: cells; assay type: cell-based; details: 10-min exposure, then 72 hours growth, read-out: IC50 (doxorubicin concentration resulting in 50% cell growth inhibition)
Procedure: SK-BR-3 human breast carcinoma cell line was purchased from American Tissue Type Culture Collection (ATCC, Manassas, Va.). Cells were maintained in in vitro culture in McCoy's 5A modified medium supplemented with 10% fatal bovine serum and were maintained in a humidified incubator at 37° C.
Cells were exposed for 10 minutes to doxorubicin (1.8 mg/mL) in free form, doxorubicin entrapped in PEGylated liposomes (2.06 mg/mL), or an immunoliposome formulation having 2 antibodies per liposome (1.86 mg/mL), 5 antibodies per liposome (2.12 mg/mL), 7.5 antibodies per liposome (1.99 mg/mL), or 15 antibodies per liposome (2 mg/mL).
Log-phase SK-BR-3 breast cancer cells were harvested using Versene (1:5000), resuspended in growth media at concentration of 5×10^4 cells/mL. […] At the end of incubation, the amount of viable cells was determined using the Promega CellTiter 96® Aqueous One Solution Cell Proliferation Assay (a tetrazolium based colorimetric method for determining the number of viable cells in proliferation, Madison, Wis.). […] The plates were then incubated for 3-4 hours after which absorbance was recorded at 490 nm with a microplate reader. Cell viability was calculated as % of untreated control using the formula: % Viability=(A−A0)/(A100−A0)×100% where A is the measured absorbance, A0 is the absorbance of the blanks, and A100 is the absorbance of the wells with untreated cells. […]

HER2 receptor [2] = target: T1, HER2 receptor (human, UniProt P04626 23-1255); assay: cell-based or functional assay
HER2 receptor [3] = target: T1, HER2 receptor; assay: 4 h incubation of immunoliposomes with SK-BR-3 cells (IHC 3+), wash, lysis, doxorubicin fluorescence
Procedure: SK-BR-3 or MCF-7 cells at 1.5×10⁵ cells/0.5 mL of growth medium per well were added to a 24-well plate. After overnight incubation for attachment and acclimation, cells were treated with immunoliposomes ([…], 15:1, 30:1, and 45:1 anti-HER2 antibodies:liposome), or liposomes at 0.015 mg/mL in 0.5 mL growth media/well in duplicates. The 24-well plates were then placed on a rotating platform inside the incubator with rotation at 40-60 rpm at 37° C., 5% CO₂, and 100% humidity for 4 hours. After incubation, cell medium were aspirated and cells were washed four times with Hank's Balanced Salt Solution (HBSS). After this, cells were lysed by adding 0.1 mL of 1% Triton X-100 to each well. The plates were swirled to mix and placed on a rotating platform for 15 minutes at room temperature. During this step, cells detached from the bottom of the plate and the cell nuclei formed visible clumps. Acid isopropanol (1.0 mL) were added to the wells containing the Triton X-100 solution and mixed by swirling or pipetting up and down until the visible clumps disappeared.
Doxorubicin content in the cell lysates was measured by a spectrofluorometer using an excitation wavelength of 470 nm and an emission wavelength of 590 nm. The spectrofluorometer settings were as follows: slit width 2 nm, integration time 1 second, photomultiplier voltage 950 V, and single wavelength acquisition mode. Fluorescence of the background cell lysate was subtracted and the amount of doxorubicin in the cell lysates was determined from the concurrently measured standards (10, 25, 50, 100, 250, 500, 1000, and 2500 ng of doxorubicin per sample) fit to a standard curve using quadratic polynomial regression. Cell uptake of doxorubicin was determined by interpolation from the standard curve.

[4] = target: extracellular domain of HER2 receptor (Homo sapiens, UniProt P04626); details: read-out: HER2 binding affinity (Kd); cited from earlier work

| Molecule | IC50 (cytotoxicity, SK-BR-3 cells, 10-min exposure, doxorubicin concentration) (HER2 receptor [2]) [µg/mL] | Doxorubicin (pg/cell), cellular binding/uptake (HER2 receptor [3]) [pg/cell] | also measured |
| --- | --- | --- | --- |
| COc1cccc2c1C(=O)c1c(O)c3c(c(O)c1C2=O)C[C@@](O)(C(=O)CO)C[C@@H]3O[C@H]1C[C@H](N)[C@H](O)[C@H](C)O1 [free doxorubicin, doxorubicin] | – | – | IC50 [1]: ~9.5 µg/mL (≈ 17.5 µM) |
| anti-Her2 immunoliposome formulation with scFv/liposome ratio of 5 (scFv, terminal cysteine coupled through a thioether linkage to maleimide-PEG-DSPE) scFv: QVQLVESGGGLVQPGGSLRLSCAASGFTFRSYAMSWVRQAPGKGLEWVSAISGRGDNTYYADSVKGRFTISRDNSKNTLYLQMNSLRAEDTAVYYCAKMTSNAFAFDYWGQGTLVTVSSGGGGSGGGGSGGGGSQSVLTQPPSVSGAPGQRVTISCTGSSSNIGAGYGVHWYQQLPGTAPKLLIYGNTNRPSGVPDRFSGFKSGTSASLAITGLQAEDEADYYCQSYDSSLSGWVFGGGTKLTVLG | ~30 | – | – |
| Anti-HER2 Immunoliposomes (7.5:1) (scFv, terminal cysteine coupled through a thioether linkage to maleimide-PEG-DSPE, On average 7.5 scFv per liposome; also called 7.5:1 immunoliposome formulation; immunoliposomes containing 7.5 antibodies per liposome) scFv: QVQLVESGGGLVQPGGSLRLSCAASGFTFRSYAMSWVRQAPGKGLEWVSAISGRGDNTYYADSVKGRFTISRDNSKNTLYLQMNSLRAEDTAVYYCAKMTSNAFAFDYWGQGTLVTVSSGGGGSGGGGSGGGGSQSVLTQPPSVSGAPGQRVTISCTGSSSNIGAGYGVHWYQQLPGTAPKLLIYGNTNRPSGVPDRFSGFKSGTSASLAITGLQAEDEADYYCQSYDSSLSGWVFGGGTKLTVLG | ~16 | 6.02 | – |
| Anti-HER2 Immunoliposomes (45:1) (scFv, terminal cysteine coupled through a thioether linkage to maleimide-PEG-DSPE, On average 45 scFv per liposome; also called 45:1 immunoliposome formulation; F5 scFv immunoliposome) scFv: QVQLVESGGGLVQPGGSLRLSCAASGFTFRSYAMSWVRQAPGKGLEWVSAISGRGDNTYYADSVKGRFTISRDNSKNTLYLQMNSLRAEDTAVYYCAKMTSNAFAFDYWGQGTLVTVSSGGGGSGGGGSGGGGSQSVLTQPPSVSGAPGQRVTISCTGSSSNIGAGYGVHWYQQLPGTAPKLLIYGNTNRPSGVPDRFSGFKSGTSASLAITGLQAEDEADYYCQSYDSSLSGWVFGGGTKLTVLG | – | 4.39 | – |
| Anti-HER2 Immunoliposomes (15:1) (scFv, terminal cysteine coupled through a thioether linkage to maleimide-PEG-DSPE, On average 15 scFv per liposome; also called 15:1 immunoliposome formulation; immunoliposomes with 15 antibodies per liposome) scFv: QVQLVESGGGLVQPGGSLRLSCAASGFTFRSYAMSWVRQAPGKGLEWVSAISGRGDNTYYADSVKGRFTISRDNSKNTLYLQMNSLRAEDTAVYYCAKMTSNAFAFDYWGQGTLVTVSSGGGGSGGGGSGGGGSQSVLTQPPSVSGAPGQRVTISCTGSSSNIGAGYGVHWYQQLPGTAPKLLIYGNTNRPSGVPDRFSGFKSGTSASLAITGLQAEDEADYYCQSYDSSLSGWVFGGGTKLTVLG | ~3.9 | 8.35 | – |
| Anti-HER2 Immunoliposomes (30:1) (scFv, terminal cysteine coupled through a thioether linkage to maleimide-PEG-DSPE, On average 30 scFv per liposome; also called 30:1 immunoliposome formulation; F5 scFv immunoliposome) scFv: QVQLVESGGGLVQPGGSLRLSCAASGFTFRSYAMSWVRQAPGKGLEWVSAISGRGDNTYYADSVKGRFTISRDNSKNTLYLQMNSLRAEDTAVYYCAKMTSNAFAFDYWGQGTLVTVSSGGGGSGGGGSGGGGSQSVLTQPPSVSGAPGQRVTISCTGSSSNIGAGYGVHWYQQLPGTAPKLLIYGNTNRPSGVPDRFSGFKSGTSASLAITGLQAEDEADYYCQSYDSSLSGWVFGGGTKLTVLG | – | 6.66 | – |
| F5: single chain antibody fragment (scFv), 251 amino acids, binds extracellular domain of HER2 receptor, SEQ ID NO: 2 (protein, listed as Homo sapiens) scFv: QVQLVESGGGLVQPGGSLRLSCAASGFTFRSYAMSWVRQAPGKGLEWVSAISGRGDNTYYADSVKGRFTISRDNSKNTLYLQMNSLRAEDTAVYYCAKMTSNAFAFDYWGQGTLVTVSSGGGGSGGGGSGGGGSQSVLTQPPSVSGAPGQRVTISCTGSSSNIGAGYGVHWYQQLPGTAPKLLIYGNTNRPSGVPDRFSGFKSGTSASLAITGLQAEDEADYYCQSYDSSLSGWVFGGGTKLTVLG | – | – | Kd [4]: 150 to 300 nM |

— patent US20060269542A1, “Immunoliposome composition for targeting to a HER2 cell receptor” (priority 2005, published 2006)
